# In PMC10987521, “An all-in-one tetrazine reagent for cysteine-selective labeling and bioorthogonal activable prodrug construction” (Nature Communications, 2024):
# “Also recorded” adds a separate entry of the source. Where two headings read alike, the source gives them in different places.
# Columns and labels:
# [1] = assay type: physicochemical; conditions: PBS pH 7.4, 10% DMSO, 37 °C; for intact (%) under 10 mM GSH at 2 μM: 520 nm HPLC–MS; for intact (%) under 10 mM GSH: 520 nm HPLC–MS (PyTz UV–Vis)
# Method: All tetrazine compounds were diluted to a concentration of 50 μM or 2 μM using PBS (10% DMSO, pH 7.4). A stock solution of GSH (400 mM in PBS) was then added to achieve a final concentration of 10 mM. The mixture was homogenized and incubated at 37 °C for 12 h. The stability of the compounds (including all peptide conjugates and PmTz) was assessed by measuring the decrease in peak area at 520 nm (with the initial peak area at 0 min defined as 100%). This measurement was monitored by HPLC–MS. Similarly, the stability of PyTz was determined by monitoring the decrease in peak intensity at 520 nm using UV–Vis. Statistical analysis was performed on data from three replicates to calculate the mean and standard deviation. […]
# Response 1: We appreciate your comment. We conducted stability tests on RGD-Dox and RGD-SN-38 in 10 mM GSH at a concentration of 2 μM, which is below the critical micelle concentrations. After incubating at 37 °C for 12 hours, we observed that 95% of RGD-Dox and 85% of RGD-SN-38 remained intact. This stability is slightly less than […]
# the observed stability is intrinsic to the peptide-drug conjugates, with a slight enhancement due to micelle […]
# concentrations, after 12 hours of incubation at 37 °C (Figure S46). […]
# intrinsic to the PDCs, with a slight enhancement by micelle formation.
# Details of these experiments have been included in the Supplementary Information (Page S42), as outlined below:
# RGD-Dox and RGD-SN-38 were diluted to a concentration of 2 μM using PBS (10% DMSO, pH 7.4). A stock solution of GSH (400 mM in PBS) was then added to achieve a final concentration of 10 mM. The mixture was homogenized and incubated at 37 °C for 12 hours. Stability was assessed by measuring the decrease in peak area at 520 nm (with the initial peak area at 0 min defined as 100%). This measurement was monitored by HPLC–MS. Statistical analysis was performed on data from three replicates to calculate the mean and standard deviation.
# B16F10 cells [2] = assay: Comparison of cell uptake between RGD-Dox and Dox using flow cytometry; assay type: cell-based, Mouse
# Method: B16F10 cells were cultured for 48 h. […]
# 12.1 Calculation of the fluorescence coefficient (F c)
# The Fc was the radio calculated
# 12.2 Uptake calculation of the B16F10 cells […]
# deviation were analyzed using Origin Pro 2015.
# B16F10 cells, characterized by α vβ3
# Following the incubation period, the
# Subsequently, the cells were trypsinized and underwent three PBS rinses. […]
# B16F10 cells [3] = assay: Cellular uptake of RGD-Dox over various time intervals using flow cytometry; assay type: cell-based, Mouse
# Method: concentration at the indicated time .
# 10. In vivo release evaluation of the RGD-FL
# Subsequently, the cells were stained […]
# laser scanning microscope. […]
# μM) for 60 min. […] Blocking studies were performed by
# Cells were pre-treated with 18- […]
# specific times using a confocal laser scanning microscope.
# 11. Cell viability assays
# After the incubation period, the
# Subsequently, the cells were trypsinized and underwent three rinses with PBS.
# B16F10 melanoma tumor = assay: In vivo anticancer efficacy, subcutaneous B16F10 melanoma tumor model; parameters: species or system BALB/c nude mice; conditions: four i.v. courses, 3.67 μmol·kg^−1 (TCO-P4 36.7 μmol·kg^−1), n = 5
# Method: Tumor-bearing mice were established by subcutaneously injecting a suspension of 5 × 10^5 B16F10 cells per mouse into the front flank of each nude mouse. When tumor volume reached 50−70 mm^3, the animals were randomly divided into five groups (n = 5). The mice were administered different compounds suspended in PBS via the tail vein every 3 days for a total of four times.
# The mice underwent four treatment courses on day 0, day 3, day 6, and day 9. Tumor size and body weight were measured every day. Tumor volume was calculated via the following formula: V = 1/2 × (minor axis) × (major axis)[2].
# After 12 days, the mice were sacrificed and dissected to obtain tumor tissues and main organs, including heart, liver, spleen, lung, and kidney. Subsequently, all tissues were fixed in a 4% paraformaldehyde solution, routinely paraffin-embedded and sectioned, and then stained with hematoxylin and eosin, as well as using TdT-mediated dUTP nick-end labeling (TUNEL) for subsequent pathological analysis. TUNEL-positive cells appeared fluorescent green, representing the apoptosis of tumor cells (nuclei were fluorescent blue, stained with DAPI).
# 13. In vivo anticancer efficacy […]
# 13.2 Calculation of the tumor growth inhibition values (TGI)
# Tumor growth inhibition values (TGI) were calculated using the following formula: TGI (%) = (1 − RTVtreatment/
# RTVcontrol)*100. RTV refers to relative tumor volume, representing the ratio of the volume at the end of treatment to the
# volume at the beginning of treatment. […]
smiles,measurement,setting,value
COc1cccc2c1C(=O)c1c(O)c3c(c(O)c1C2=O)C[C@@](O)(C(=O)CO)C[C@@H]3O[C@H]1C[C@H](NC(=O)OCc2nnc(CCSC[C@@H]3NC(=O)[C@@H](Cc4ccc(O)cc4)NC(=O)[C@H](CC(=O)O)NC(=O)CNC(=O)[C@H](CCCNC(=N)N)NC3=O)nn2)[C@H](O)[C@H](C)O1 [RGD-Dox],intact (%) under 10 mM GSH at 2 μM,"[1]; 1 h, Data 1, 2 μM (below CMC)",98%
same,intact (%) under 10 mM GSH,"[1]; 1 h, Data 1, 50 μM",98.414%
same,intact (%) under 10 mM GSH at 2 μM,"[1]; 1 h, Data 2, 2 μM (below CMC)",96.5%
same,intact (%) under 10 mM GSH,"[1]; 1 h, Data 2, 50 μM",98.1%
same,intact (%) under 10 mM GSH at 2 μM,"[1]; 1 h, Data 3, 2 μM (below CMC)",98%
same,intact (%) under 10 mM GSH,"[1]; 1 h, Data 3, 50 μM",97%
same,intact (%) under 10 mM GSH at 2 μM,"[1]; 3 h, Data 1, 2 μM (below CMC)",93.4%
same,intact (%) under 10 mM GSH,"[1]; 3 h, Data 1, 50 μM",95.9241%
same,intact (%) under 10 mM GSH at 2 μM,"[1]; 3 h, Data 2, 2 μM (below CMC)",94.4%
same,intact (%) under 10 mM GSH,"[1]; 3 h, Data 2, 50 μM",96.1928%
same,intact (%) under 10 mM GSH at 2 μM,"[1]; 3 h, Data 3, 2 μM (below CMC)",94.5%
same,intact (%) under 10 mM GSH,"[1]; 3 h, Data 3, 50 μM",97.3114%
same,intact (%) under 10 mM GSH at 2 μM,"[1]; 5 h, Data 1, 2 μM (below CMC)",94.7%
same,intact (%) under 10 mM GSH at 2 μM,"[1]; 5 h, Data 2, 2 μM (below CMC)",95%
same,intact (%) under 10 mM GSH at 2 μM,"[1]; 5 h, Data 3, 2 μM (below CMC)",94.9%
same,intact (%) under 10 mM GSH at 2 μM,"[1]; 8 h, Data 1, 2 μM (below CMC)",95%
same,intact (%) under 10 mM GSH,"[1]; 8 h, Data 1, 50 μM",93.681%
same,intact (%) under 10 mM GSH at 2 μM,"[1]; 8 h, Data 2, 2 μM (below CMC)",95.7%
same,intact (%) under 10 mM GSH,"[1]; 8 h, Data 2, 50 μM",93.4607%
same,intact (%) under 10 mM GSH at 2 μM,"[1]; 8 h, Data 3, 2 μM (below CMC)",96%
same,intact (%) under 10 mM GSH,"[1]; 8 h, Data 3, 50 μM",95.7%
same,remained intact with 10 mM GSH at 2 μM,"[1]; 12 h, 2 μM (below CMC), HPLC–MS 520 nm, mean of n = 3",95%
same,remained intact with 10 mM GSH,"[1]; 12 h, 50 μM, HPLC–MS peak area 520 nm, mean of n = 3",96%
same,intact (%) under 10 mM GSH at 2 μM,"[1]; 12 h, Data 1, 2 μM (below CMC)",96%
same,intact (%) under 10 mM GSH,"[1]; 12 h, Data 1, 50 μM",94.9%
same,intact (%) under 10 mM GSH at 2 μM,"[1]; 12 h, Data 2, 2 μM (below CMC)",95.4%
same,intact (%) under 10 mM GSH,"[1]; 12 h, Data 2, 50 μM",97.6967%
same,intact (%) under 10 mM GSH at 2 μM,"[1]; 12 h, Data 3, 2 μM (below CMC)",97%
same,intact (%) under 10 mM GSH,"[1]; 12 h, Data 3, 50 μM",96.3405%
same,Normalized uptake,"B16F10 cells [2]; normalized to Dox = 1, Data 1",22.44
same,Normalized uptake,"B16F10 cells [2]; normalized to Dox = 1, Data 2",22.03
same,Normalized uptake,"B16F10 cells [2]; normalized to Dox = 1, Data 3",17.85
same,cellular uptake of RGD-Dox (flow cytometry),"B16F10 cells [3]; 0.5 h, Data 1",4477
same,cellular uptake of RGD-Dox (flow cytometry),"B16F10 cells [3]; 0.5 h, Data 3",4327
same,cellular uptake of RGD-Dox (flow cytometry),"B16F10 cells [3]; 1 h, Data 3",6221
same,cellular uptake of RGD-Dox (flow cytometry),"B16F10 cells [3]; 2 h, Data 1",10116
same,cellular uptake of RGD-Dox (flow cytometry),"B16F10 cells [3]; 3 h, Data 3",12247
same,cellular uptake of RGD-Dox (flow cytometry),"B16F10 cells [3]; 4 h, Data 3",12044
same,cellular uptake over time (flow cytometry),"B16F10 cells [3]; B16F10, 10 μM, 37 °C, 0.5–6 h, 488/610 nm","rapid increase observed within the first 2 hours, followed by a plateau and saturation thereafter; also recorded: high cellular uptake after 2 h"
same,tumor growth / inhibition in words,B16F10 melanoma tumor,did not exhibit significant tumor inhibition; also recorded: rapid tumor growth
